Ends that are not written are not given here. * marks the point of attachment. For = O=C*
Target: the molecule itself
Assay: ThT fluorescence + TEM

For-MEFVAKLFKFFKDLLGKFLGNN [formylated wild-type phenol soluble modulin α3 (f-WT PSMα3)]
binding result: binds

MEFVAKLFKFFKDLLGKFLGNN [deformylated wild-type phenol soluble modulin α3 (df-WT PSMα3)]
binding result: binds

Reference: doi:10.1101/2024.02.27.582255 (bioRxiv, 2024)
